The subject of series [1] is HeLa Kyoto. The series is described as follows: solubility in G1/S (NP-40 vs SDS abundance) (log2 ratio); higher = more soluble. The conditions noted are these: cell cycle stage: G1/S.
The test system of series [2] is HeLa Kyoto. The series is described as follows: melting temperature (median over replicates), in situ; higher = more thermally stable.
The test system of series [3] is HeLa Kyoto. Briefly: solubility change mitosis vs G1/S (difference of NP-40 vs SDS log2 ratios) (log2 ratio difference); higher = more soluble in mitosis.
The subject of series [4] is HeLa Kyoto. The series is described as follows: thermal stability score vs G1/S (z-score of summed log2 fold changes over temperatures); higher = more thermally stable than in G1/S.
The mark [5] stands for this setting: cell cycle stage: early G1 (4.5 h after nocodazole release).
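For melting temperature (median over replicates), in situ in this document: HeLa Kyoto cells synchronized by double thymidine or nocodazole block, proteins quantified by TMT10plex mass spectrometry, three independent biological replicates.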
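For solubility change mitosis vs G1/S (difference of NP-40 vs SDS log2 ratios) in this document: synchronized HeLa Kyoto cells (double thymidine block for G1/S, nocodazole release for mitosis), protein amounts in NP-40 versus SDS lysates quantified by mass spectrometry, three biological replicates.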
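For solubility in G1/S (NP-40 vs SDS abundance) in this document: HeLa Kyoto cells arrested at G1/S by double thymidine block, proteins quantified by TMT10plex mass spectrometry in mild NP-40 versus SDS extracts, three biological replicates.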
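For thermal stability score vs G1/S (z-score of summed log2 fold changes over temperatures) in this document: synchronized HeLa Kyoto cells, proteins quantified by TMT10plex mass spectrometry, three biological replicates, mitosis taken 0.5 h after nocodazole release, G1/S directly after double thymidine block.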

On to “MALLTAAARLLGTKNASCLVLAARHASASSTNLKDILADLIPKEQARIKTFRQQHGKTVVGQITVDMMYGGMRGMKGLVYETSVLDPDEGIRFRGFSIPECQKLLPKAKGGEEPLPEGLFWLLVTGHIPTEEQVSWLSKEWAKRAALPSHVVTMLDNFPTNLHPMSQLSAAVTALNSESNFARAYAQGISRTKYWELIYEDSMDLIAKLPCVAAKIYRNLYREGSGIGAIDSNLDWSHNFTNMLGYTDHQFTELTRLYLTIHSDHEGGNVSAHTSHLVGSALSDPYLSFAAAMNGLAGPLHGLANQEVLVWLTQLQKEVGKDVSDEKLRDYIWNTLNSGRVVPGYGHAVLRKTDPRYTCQREFALKHLPNDPMFKLVAQLYKIVPNVLLEQGKAKNPWPNVDAHSGVLLQYYGMTEMNYYTVLFGVSRALGVLAQLIWSRALGFPLERPKSMSTEGLMKFVDSKSG [CS]”, for which, in the series with HeLa Kyoto [1], the “solubility in G1/S (log2)” value was determined as 0.519. Besides, the melting temperature with HeLa Kyoto [2] (cell cycle stage: G1/S) is 52 °C; with HeLa Kyoto [2] (cell cycle stage: mitosis) it was 51.9 °C. Besides, the “solubility change mitosis (log2)” value in the series with HeLa Kyoto [3] was -0.0123. The values for the thermal stability score in the series on HeLa Kyoto [4] (setting [5]) and in the series on HeLa Kyoto [4] (cell cycle stage: mitosis) were 1.01 and 0.1, respectively.
As for “MALQTLQSSWVTFRKILSHFPEELSLAFVYGSGVYRQAGPSSDQKNAMLDFVFTVDDPVAWHSKNLKKNWSHYSFLKVLGPKIITSIQNNYGAGVYYNSLIMCNGRLIKYGVISTNVLIEDLLNWNNLYIAGRLQKPVKIISVNEDVTLRSALDRNLKSAVTAAFLMLPESFSEEDLFIEIAGLSYSGDFRMVVGEDKTKVLNIVKPNIAHFRELYGSILQENPQVVYKSQQGWLEIDKSPEGQFTQLMTLPKTLQQQINHIMDPPGKNRDVEETLFQVAHDPDCGDVVRLGLSAIVRPSSIRQSTKGIFTAGKSFGNPCVTYLLTEWLPHSWLQCKALYLLGACEMLSFDGHKLGYCSKVQTGITAAEPGGRTMSDHWQCCWKLYCPSEFSETLPVCRVFPSYCFIYQSYRCIGLQKQQHLCSPSSSPSLRQLLPSVLVGYFCCYCHFSKW [TAMM41]”, the “solubility in G1/S (log2)” value in the series on HeLa Kyoto [1] is 0.0094. Besides, the melting temperature with HeLa Kyoto [2] (cell cycle stage: G1/S) is 52.6 °C; in the series with HeLa Kyoto [2] (cell cycle stage: mitosis), 52.8 °C. Besides, in the series on HeLa Kyoto [3], the “solubility change mitosis (log2)” value is -0.163. The values for the thermal stability score in the series with HeLa Kyoto [4] (setting [5]) and in the series with HeLa Kyoto [4] (cell cycle stage: mitosis) were -1.37 and -1.38, respectively.
As for “MALRGVSVRLLSRGPGLHVLRTWVSSAAQTEKGGRTQSQLAKSSRPEFDWQDPLVLEEQLTTDEILIRDTFRTYCQERLMPRILLANRNEVFHREIISEMGELGVLGPTIKGYGCAGVSSVAYGLLARELERVDSGYRSAMSVQSSLVMHPIYAYGSEEQRQKYLPQLAKGELLGCFGLTEPNSGSDPSSMETRAHYNSSNKSYTLNGTKTWITNSPMADLFVVWARCEDGCIRGFLLEKGMRGLSAPRIQGKFSLRASATGMIIMDGVEVPEENVLPGASSLGGPFGCLNNARYGIAWGVLGASEFCLHTARQYALDRMQFGVPLARNQLIQKKLADMLTEITLGLHACLQLGRLKDQDKAAPEMVSLLKRNNCGKALDIARQARDMLGGNGISDEYHVIRHAMNLEAVNTYEGTHDIHALILGRAITGIQAFTASK [GCDH]”, the “solubility in G1/S (log2)” value with HeLa Kyoto [1] worked out at 0.217. Moreover, the melting temperature with HeLa Kyoto [2] (cell cycle stage: G1/S) is 54.2 °C; in the series on HeLa Kyoto [2] (cell cycle stage: mitosis) it was 54.7 °C. For the same sequence, in the series on HeLa Kyoto [3], the “solubility change mitosis (log2)” value is -0.103. For the same sequence, the thermal stability score in the series on HeLa Kyoto [4] (setting [5]) was -0.63; in the series on HeLa Kyoto [4] (cell cycle stage: mitosis), 1.21.
As to “MALSCTLNRYLLLMAQEHLEFRLPEIKSLLLLFGGQFASSQETYGKSPFWILSIPSEDIARNLMKRTVCAKSIFELWGHGQSPEELYSSLKNYPVEKMVPFLHSDSTYKIKIHTFNKTLTQEEKIKRIDALEFLPFEGKVNLKKPQHVFSVLEDYGLDPNCIPENPHNIYFGRWIADGQRELIESYSVKKRHFIGNTSMDAGLSFIMANHGKVKENDIVFDPFVGTGGLLIACAHFGAYVYGTDIDYNTVHGLGKATRKNQKWRGPDENIRANLRQYGLEKYYLDVLVSDASKPSWRKGTYFDAIITDPPYGIRESTRRTGSQKEIPKGIEKWEKCPESHVPVSLSYHLSDMFLDLLNFAAETLVLGGRLVYWLPVYTPEYTEEMVPWHPCLELVSNCEQKLSSHTSRRLITMEKVKKFENRDQYSHLLSDHFLPYQGHNSFREKYFSGVTKRIAKEEKSTQE [TRMT11]”, in the series on HeLa Kyoto [1], the “solubility in G1/S (log2)” value came to 0.171. Moreover, the melting temperature was found to be 54.4 °C with HeLa Kyoto [2] (cell cycle stage: G1/S) and 53.5 °C in the series on HeLa Kyoto [2] (cell cycle stage: mitosis). Also, the “solubility change mitosis (log2)” value in the series on HeLa Kyoto [3] is -0.155. For the same sequence, the thermal stability score in the series on HeLa Kyoto [4] (setting [5]) is 0.848; in the series on HeLa Kyoto [4] (cell cycle stage: mitosis), -0.0136.
“MAMAPSPSLVQVYTSPAAVAVWEWQDGLGTWHPYSATVCSFIEQQFVQQKGQRFGLGSLAHSIPLGQADPSLAPYIIDLPSWTQFRQDTGTMRAVRRHLFPQHSAPGRGVVWEWLSDDGSWTAYEASVCDYLEQQVARGNQLVDLAPLGYNYTVNYTTHTQTNKTSSFCRSVRRQAGPPYPVTTIIAPPGHTGVACSCHQCLSGSRTGPVSGRYRHSMTNLPAYPVPQHPPHRTASVFGTHQAFAPYNKPSLSGARSAPRLNTTNAWGAAPPSLGSQPLYRSSLSHLGPQHLPPGSSTSGAVSASLPSGPSSSPGSVPATVPMQMPKPSRVQQALAGMTSVLMSAIGLPVCLSRAPQPTSPPASRLASKSHGSVKRLRKMSVKGATPKPEPEPEQVIKNYTEELKVPPDEDCIICMEKLSTASGYSDVTDSKAIGSLAVGHLTKCSHAFHLLCLLAMYCNGNKDGSLQCPSCKTIYGEKTGTQPQGKMEVLRFQMSLPGHEDCGTILIVYSIPHGIQGPEHPNPGKPFTARGFPRQCYLPDNAQGRKVLELLKVAWKRRLIFTVGTSSTTGETDTVVWNEIHHKTEMDRNITGHGYPDPNYLQNVLAELAAQGVTEDCLEQQ [DTX2]”: the “solubility in G1/S (log2)” value in the series with HeLa Kyoto [1] worked out at 0.0228. In the series with HeLa Kyoto [2] (cell cycle stage: mitosis), this sequence gave a melting temperature of 47.4 °C. For the same sequence, the “solubility change mitosis (log2)” value in the series on HeLa Kyoto [3] is -0.253. Besides, the thermal stability score in the series with HeLa Kyoto [4] (setting [5]) was 0.67; in the series on HeLa Kyoto [4] (cell cycle stage: mitosis) it was 0.769.

These data come from the supplement of paper PMC5998384.
